Reference: patent US20170283497A1 (CELLECTIS, published 2017)

B1: D10-v1 scCAR (other)
chain: QVQLKESGPGLVAPSQTLSITCTVSGFSLTSYGVHWVRQPPGKGLEWLGVIWAGGFTNYNSALKSRLSISKDNSKSQVLLKMTSLQTDDTAMYYCARRGSSYSMDYWGQGTSVTVSSGGGGSGGGGSGGGGSEIVLSQSPAITAASLGQKVTITCSASSNVSYIHWYQQRSGTSPRPWIYEISKLASGVPVRFSGSGSGTSYSLTISSMEAEDAAIYYCQQWNYPLITFGSGTKLEIQGLAVSTISSFFPPGYQIYIWAPLAGTCGVLLLSLVITLYCKRGRKKLLYIFKQPFMRPVQTTQEEDGCSCRFPEEEEGGCELRVKFSRSADAPAYQQGQNQLYNELNLGRREEYDVLDKRRGRDPEMGGKPRRKNPQEGLYNELQKDKMAEAYSEIGMKGERRRGKGHDGLYQGLSTATKDTYDALHMQALPPR
B2: H10-v5 scCAR (other)
chain: EVKLVESGGGLVKPGGSLKLSCAASGFTFSSYAMSWVRQTPEKRLEWVASISTGASAYFPDSVKGRFTISRDNARNILYLQMSSLRSEDTAMYYCARITTSTWYFDVWGAGTTVTVSSGGGGSGGGGSGGGGSDIKMTQSPSSMYASLGERVTITCKASQDINSYLSWFQQKPGKSPKTLIYRANRLVDGVPSRFSGSGSGQDYSLTISSLEYEDMGIYYCLQYDEFPYTFGGGTKLEIKEPKSPDKTHTCPPCPAPPVAGPSVFLFPPKPKDTLMIARTPEVTCVVVDVSHEDPEVKFNWYVDGVEVHNAKTKPREEQYNSTYRVVSVLTVLHQDWLNGKEYKCKVSNKALPAPIEKTISKAKGQPREPQVYTLPPSRDELTKNQVSLTCLVKGFYPSDIAVEWESNGQPENNYKTTPPVLDSDGSFFLYSKLTVDKSRWQQGNVFSCSVMHEALHNHYTQKSLSLSPGKIYIWAPLAGTCGVLLLSLVITLYCKRGRKKLLYIFKQPFMRPVQTTQEEDGCSCRFPEEEEGGCELRVKFSRSADAPAYQQGQNQLYNELNLGRREEYDVLDKRRGRDPEMGGKPRRKNPQEGLYNELQKDKMAEAYSEIGMKGERRRGKGHDGLYQGLSTATKDTYDALHMQALPPR
B3: D10-v5 scCAR (other)
chain: QVQLKESGPGLVAPSQTLSITCTVSGFSLTSYGVHWVRQPPGKGLEWLGVIWAGGFTNYNSALKSRLSISKDNSKSQVLLKMTSLQTDDTAMYYCARRGSSYSMDYWGQGTSVTVSSGGGGSGGGGSGGGGSEIVLSQSPAITAASLGQKVTITCSASSNVSYIHWYQQRSGTSPRPWIYEISKLASGVPVRFSGSGSGTSYSLTISSMEAEDAAIYYCQQWNYPLITFGSGTKLEIQEPKSPDKTHTCPPCPAPPVAGPSVFLFPPKPKDTLMIARTPEVTCVVVDVSHEDPEVKFNWYVDGVEVHNAKTKPREEQYNSTYRVVSVLTVLHQDWLNGKEYKCKVSNKALPAPIEKTISKAKGQPREPQVYTLPPSRDELTKNQVSLTCLVKGFYPSDIAVEWESNGQPENNYKTTPPVLDSDGSFFLYSKLTVDKSRWQQGNVFSCSVMHEALHNHYTQKSLSLSPGKIYIWAPLAGTCGVLLLSLVITLYCKRGRKKLLYIFKQPFMRPVQTTQEEDGCSCRFPEEEEGGCELRVKFSRSADAPAYQQGQNQLYNELNLGRREEYDVLDKRRGRDPEMGGKPRRKNPQEGLYNELQKDKMAEAYSEIGMKGERRRGKGHDGLYQGLSTATKDTYDALHMQALPPR
B4: D10-v3 scCAR (other)
chain: QVQLKESGPGLVAPSQTLSITCTVSGFSLTSYGVHWVRQPPGKGLEWLGVIWAGGFTNYNSALKSRLSISKDNSKSQVLLKMTSLQTDDTAMYYCARRGSSYSMDYWGQGTSVTVSSGGGGSGGGGSGGGGSEIVLSQSPAITAASLGQKVTITCSASSNVSYIHWYQQRSGTSPRPWIYEISKLASGVPVRFSGSGSGTSYSLTISSMEAEDAAIYYCQQWNYPLITFGSGTKLEIQTTTPAPRPPTPAPTIASQPLSLRPEACRPAAGGAVHTRGLDFACDIYIWAPLAGTCGVLLLSLVITLYCKRGRKKLLYIFKQPFMRPVQTTQEEDGCSCRFPEEEEGGCELRVKFSRSADAPAYQQGQNQLYNELNLGRREEYDVLDKRRGRDPEMGGKPRRKNPQEGLYNELQKDKMAEAYSEIGMKGERRRGKGHDGLYQGLSTATKDTYDALHMQALPPR
B5: H10-v3 scCAR (other)
chain: EVKLVESGGGLVKPGGSLKLSCAASGFTFSSYAMSWVRQTPEKRLEWVASISTGASAYFPDSVKGRFTISRDNARNILYLQMSSLRSEDTAMYYCARITTSTWYFDVWGAGTTVTVSSGGGGSGGGGSGGGGSDIKMTQSPSSMYASLGERVTITCKASQDINSYLSWFQQKPGKSPKTLIYRANRLVDGVPSRFSGSGSGQDYSLTISSLEYEDMGIYYCLQYDEFPYTFGGGTKLEIKTTTPAPRPPTPAPTIASQPLSLRPEACRPAAGGAVHTRGLDFACDIYIWAPLAGTCGVLLLSLVITLYCKRGRKKLLYIFKQPFMRPVQTTQEEDGCSCRFPEEEEGGCELRVKFSRSADAPAYQQGQNQLYNELNLGRREEYDVLDKRRGRDPEMGGKPRRKNPQEGLYNELQKDKMAEAYSEIGMKGERRRGKGHDGLYQGLSTATKDTYDALHMQALPPR
B6: H10-v1 scCAR (other)
chain: EVKLVESGGGLVKPGGSLKLSCAASGFTFSSYAMSWVRQTPEKRLEWVASISTGASAYFPDSVKGRFTISRDNARNILYLQMSSLRSEDTAMYYCARITTSTWYFDVWGAGTTVTVSSGGGGSGGGGSGGGGSDIKMTQSPSSMYASLGERVTITCKASQDINSYLSWFQQKPGKSPKTLIYRANRLVDGVPSRFSGSGSGQDYSLTISSLEYEDMGIYYCLQYDEFPYTFGGGTKLEIKGLAVSTISSFFPPGYQIYIWAPLAGTCGVLLLSLVITLYCKRGRKKLLYIFKQPFMRPVQTTQEEDGCSCRFPEEEEGGCELRVKFSRSADAPAYQQGQNQLYNELNLGRREEYDVLDKRRGRDPEMGGKPRRKNPQEGLYNELQKDKMAEAYSEIGMKGERRRGKGHDGLYQGLSTATKDTYDALHMQALPPR

Molecular target: Tyrosine-protein kinase transmembrane receptor ROR1 (human, UniProt Q01973 30-937)
Sequence (Q01973 30-937): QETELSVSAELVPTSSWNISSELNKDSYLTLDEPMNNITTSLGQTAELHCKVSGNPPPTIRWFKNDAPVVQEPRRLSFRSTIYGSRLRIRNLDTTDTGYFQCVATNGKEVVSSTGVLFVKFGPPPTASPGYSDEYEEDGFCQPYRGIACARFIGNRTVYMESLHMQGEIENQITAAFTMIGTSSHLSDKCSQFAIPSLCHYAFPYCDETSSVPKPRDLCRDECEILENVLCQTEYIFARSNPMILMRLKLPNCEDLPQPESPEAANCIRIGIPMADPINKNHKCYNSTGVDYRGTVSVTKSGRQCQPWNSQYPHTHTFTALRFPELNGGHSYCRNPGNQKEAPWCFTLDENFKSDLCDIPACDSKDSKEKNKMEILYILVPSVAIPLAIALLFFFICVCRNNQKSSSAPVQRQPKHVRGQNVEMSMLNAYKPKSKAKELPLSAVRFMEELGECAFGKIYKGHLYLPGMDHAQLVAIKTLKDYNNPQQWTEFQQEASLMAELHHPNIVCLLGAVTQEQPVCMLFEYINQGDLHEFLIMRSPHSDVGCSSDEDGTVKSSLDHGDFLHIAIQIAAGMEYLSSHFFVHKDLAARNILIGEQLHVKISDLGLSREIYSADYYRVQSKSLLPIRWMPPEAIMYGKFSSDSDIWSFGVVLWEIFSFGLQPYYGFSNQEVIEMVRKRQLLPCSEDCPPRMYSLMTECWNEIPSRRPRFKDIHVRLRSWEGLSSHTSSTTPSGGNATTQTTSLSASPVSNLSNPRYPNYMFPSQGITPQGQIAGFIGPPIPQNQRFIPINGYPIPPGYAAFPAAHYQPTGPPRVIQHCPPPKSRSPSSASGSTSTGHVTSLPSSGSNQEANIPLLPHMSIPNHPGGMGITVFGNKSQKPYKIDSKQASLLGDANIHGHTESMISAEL
Experiment: cell-based or functional assay

Row | Binder | degranulation of scCAR-modified T cells (primary screening) [%] | cytotoxic activity of scCAR-modified T cells, specific lysis of PC-3 cells [%] | degranulation of scCAR-modified T cells (secondary screening) [%] | production of IFNγ by scCAR-modified T cells [pg/mL]
1 | B1 | ≥ 20 | – | – | –
2 | B2 | ≥ 20 | – | – | –
3 | B3 | ≥ 20 | > 20 | ≥ 20 | ≥ 1500
4 | B4 | ≥ 20 | > 20 | ≥ 20 | ≥ 1500
5 | B5 | ≥ 20 | > 20 | ≥ 20 | ≥ 1500
6 | B6 | ≥ 20 | – | – | –
